Laboratory results taken from publication PMC4620443, “Screening and Identifying a Novel ssDNA Aptamer against Alpha-fetoprotein Using CE-SELEX”.

Biological target: T1, alpha-fetoprotein (AFP) (UniProt P02771 19-609)
T1 sequence: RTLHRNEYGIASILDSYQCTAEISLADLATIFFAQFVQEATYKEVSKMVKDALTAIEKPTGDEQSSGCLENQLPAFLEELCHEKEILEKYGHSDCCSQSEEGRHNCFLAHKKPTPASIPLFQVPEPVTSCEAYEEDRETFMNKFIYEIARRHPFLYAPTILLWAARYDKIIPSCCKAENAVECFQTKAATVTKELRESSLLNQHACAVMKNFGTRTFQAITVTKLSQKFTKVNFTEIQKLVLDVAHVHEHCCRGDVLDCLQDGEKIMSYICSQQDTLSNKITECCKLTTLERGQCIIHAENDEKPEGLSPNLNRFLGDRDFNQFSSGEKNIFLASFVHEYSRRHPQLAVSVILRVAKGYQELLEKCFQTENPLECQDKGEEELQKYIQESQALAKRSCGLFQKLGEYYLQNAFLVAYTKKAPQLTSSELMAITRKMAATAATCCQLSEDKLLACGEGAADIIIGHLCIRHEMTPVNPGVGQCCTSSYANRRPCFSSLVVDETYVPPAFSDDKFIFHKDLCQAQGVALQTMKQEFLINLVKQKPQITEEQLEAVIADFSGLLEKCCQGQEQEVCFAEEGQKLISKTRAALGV
Test: capillary electrophoresis (CE-LIF); CE-LIF: 10 uM FAM-aptamer with 100 ug/ml AFP, 25 C, PVA-coated capillary, -8 kV with 0.5 psi; CE buffer composition and pH not given in the material
Conditions: protein: commercial; label: 5' 6-FAM

B1: AP244 (ssDNA)
DNA: GTGACGCTCCTAACGCTGACGGCCCGTCAATCCCCGCGTATCCATTGGTCCTTTACCTGTCCGTCCGAACCAATC
- Kd: 4800 nM

B2: AP273 (ssDNA)
DNA: GTGACGCTCCTAACGCTGACTCAGGTGCAGTTCTCGACTCGGTCTTGATGTGGGTCCTGTCCGTCCGAACCAATC
- Kd: 500 nM

B3: AP250 (ssDNA)
DNA: GTGACGCTCCTAACGCTGACACAGTTGCTAAGAGCCGCCTCTGAACCTATCGAGGCCTGTCCGTCCGAACCAATC
- binding result: binds

B4: AP206 (ssDNA)
DNA: GTGACGCTCCTAACGCTGACTTTTAATTCTTGTTTATTGGTATATCCGCCTCTGACCTGTCCGTCCGAACCAATC
- binding result: binds

B5: AP211 (ssDNA)
DNA: GTGACGCTCCTAACGCTGACTTTTTGGGAATGCGTATGTATGCTCGCCACGTACGCCTGTCCGTCCGAACCAATC
- binding result: no binding
